For data set [1], the system named is HeLa Kyoto. The data set is described as follows: thermal stability score vs G1/S (z-score of summed log2 fold changes over temperatures); higher = more thermally stable than in G1/S.
Data set [2] relates to HeLa Kyoto. The data set is described as follows: solubility change mitosis vs G1/S (difference of NP-40 vs SDS log2 ratios) (log2 ratio difference); higher = more soluble in mitosis.
For data set [3], the system named is HeLa Kyoto. In words: solubility in G1/S (NP-40 vs SDS abundance) (log2 ratio); higher = more soluble. The settings on record: cell cycle stage: G1/S.
Data set [4] relates to HeLa Kyoto. In words: melting temperature (median over replicates), in situ; higher = more thermally stable.
The mark [5] stands for this setting: cell cycle stage: early G1 (4.5 h after nocodazole release).
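For melting temperature (median over replicates), in situ in this document: HeLa Kyoto cells synchronized by double thymidine or nocodazole block, proteins quantified by TMT10plex mass spectrometry, three independent biological replicates.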
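For solubility change mitosis vs G1/S (difference of NP-40 vs SDS log2 ratios) in this document: synchronized HeLa Kyoto cells (double thymidine block for G1/S, nocodazole release for mitosis), protein amounts in NP-40 versus SDS lysates quantified by mass spectrometry, three biological replicates.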
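For solubility in G1/S (NP-40 vs SDS abundance) in this document: HeLa Kyoto cells arrested at G1/S by double thymidine block, proteins quantified by TMT10plex mass spectrometry in mild NP-40 versus SDS extracts, three biological replicates.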
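For thermal stability score vs G1/S (z-score of summed log2 fold changes over temperatures) in this document: synchronized HeLa Kyoto cells, proteins quantified by TMT10plex mass spectrometry, three biological replicates, mitosis taken 0.5 h after nocodazole release, G1/S directly after double thymidine block.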

CDK17, sequence (chain, as listed by the source): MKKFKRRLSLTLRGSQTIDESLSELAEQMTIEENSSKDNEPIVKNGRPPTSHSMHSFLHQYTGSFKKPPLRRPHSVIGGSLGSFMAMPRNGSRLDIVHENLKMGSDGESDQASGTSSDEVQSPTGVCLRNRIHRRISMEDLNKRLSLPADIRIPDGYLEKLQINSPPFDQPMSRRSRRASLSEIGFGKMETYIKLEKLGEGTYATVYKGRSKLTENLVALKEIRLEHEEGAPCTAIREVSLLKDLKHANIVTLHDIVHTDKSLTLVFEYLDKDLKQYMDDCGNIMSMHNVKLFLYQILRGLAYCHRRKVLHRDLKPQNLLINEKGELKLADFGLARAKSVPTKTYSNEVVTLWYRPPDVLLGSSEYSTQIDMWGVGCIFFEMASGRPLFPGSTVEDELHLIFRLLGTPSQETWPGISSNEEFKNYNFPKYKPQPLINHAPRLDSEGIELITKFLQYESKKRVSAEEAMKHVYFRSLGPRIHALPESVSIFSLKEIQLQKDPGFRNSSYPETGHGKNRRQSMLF

CDK17: the values for the thermal stability score in data set [1] (setting [5]) and in data set [1] (cell cycle stage: mitosis) were 0.0888 and -0.0845, respectively. Further, the “solubility change mitosis (log2)” value in data set [2] is 0.0778. Also, the “solubility in G1/S (log2)” value in data set [3] was -0.187.
For the substance “MEEEDEEARALLAGGPDEADRGAPAAPGALPALCDPSRLAHRLLVLLLMCFLGFGSYFCYDNPAALQTQVKRDMQVNTTKFMLLYAWYSWPNVVLCFFGGFLIDRVFGIRWGTIIFSCFVCIGQVVFALGGIFNAFWLMEFGRFVFGIGGESLAVAQNTYAVSWFKGKELNLVFGLQLSMARIGSTVNMNLMGWLYSKIEALLGSAGHTTLGITLMIGGITCILSLICALALAYLDQRAERILHKEQGKTGEVIKLTDVKDFSLPLWLIFIICVCYYVAVFPFIGLGKVFFTEKFGFSSQAASAINSVVYVISAPMSPVFGLLVDKTGKNIIWVLCAVAATLVSHMMLAFTMWNPWIAMCLLGLSYSLLACALWPMVAFVVPEHQLGTAYGFMQSIQNLGLAIISIIAGMILDSRGYLFLEVFFIACVSLSLLSVVLLYLVNRAQGGNLNYSARQREEIKFSHTE [MFSD1]”, the thermal stability score in data set [1] (setting [5]) was -0.307; in data set [1] (cell cycle stage: mitosis), -0.166. The “solubility change mitosis (log2)” value in data set [2] was -0.327. Also, the “solubility in G1/S (log2)” value in data set [3] is -0.268.
For “MAGVGDAAAPGEGGGGGVDGPQRDGRGEAEQPGGSGGQGPPPAPQLTETLGFYESDRRRERRRGRTELSLLRFLSAELTRGYFLEHNEAKYTERRERVYTCLRIPRELEKLMVFGIFLCLDAFLYVFTLLPLRVFLALFRLLTLPCYGLRDRRLLQPAQVCDILKGVILVICYFMMHYVDYSMMYHLIRGQSVIKLYIIYNMLEVADRLFSSFGQDILDALYWTATEPKERKRAHIGVIPHFFMAVLYVFLHAILIMVQATTLNVAFNSHNKSLLTIMMSNNFVEIKGSVFKKFEKNNLFQMSNSDIKERFTNYVLLLIVCLRNMEQFSWNPDHLWVLFPDVCMVIASEIAVDIVKHAFITKFNDITADVYSEYRASLAFDLVSSRQKNAYTDYSDSVARRMGFIPLPLAVLLIRVVTSSIKVQGILSYACVILFYFGLISLKVLNSIVLLGKSCQYVKEAKMEEKLSNPPATCTPGKPSSKSQNKCKPSQGLSTEENLSASITKQPIHQKENIIPLLVTSNSDQFLTTPDGDEKDITQDNSELKHRSSKKDLLEIDRFTICGNRID [TAPT1]” the same measures were -2.91, -4.92, 0.0176 and -0.313.
The corresponding values for “MGAVLGVFSLASWVPCLCSGASCLLCSCCPNSKNSTVTRLIYAFILLLSTVVSYIMQRKEMETYLKKIPGFCEGGFKIHEADINADKDCDVLVGYKAVYRISFAMAIFFFVFSLLMFKVKTSKDLRAAVHNGFWFFKIAALIGIMVGSFYIPGGYFSSVWFVVGMIGAALFILIQLVLLVDFAHSWNESWVNRMEEGNPRLWYAALLSFTSAFYILSIICVGLLYTYYTKPDGCTENKFFISINLILCVVASIISIHPKIQEHQPRSGLLQSSLITLYTMYLTWSAMSNEPDRSCNPNLMSFITRITAPTLAPGNSTAVVPTPTPPSKSGSLLDSDNFIGLFVFVLCLLYSSIRTSTNSQVDKLTLSGSDSVILGDTTTSGASDEEDGQPRRAVDNEKEGVQYSYSLFHLMLCLASLYIMMTLTSWYSPDAKFQSMTSKWPAVWVKISSSWVCLLLYVWTLVAPLVLTSRDFS [SERINC3]” are -2.7, -4.19, 0.0994 and -0.0916.
For the substance “MNSVRAANRRPRRVSRPRPVQQQQQQPPQQPPPQPPQQQPPQQQPPPPPQQQQQQQPPPPPPPPPPLPQERNNVGERDDDVPADMVAEESGPGAQNSPYQLRRKTLLPKRTACPTKNSMEGASTSTTENFGHRAKRARVSGKSQDLSAAPAEQYLQEKLPDEVVLKIFSYLLEQDLCRAACVCKRFSELANDPILWKRLYMEVFEYTRPMMHPEPGKFYQINPEEYEHPNPWKESFQQLYKGAHVKPGFAEHFYSNPARYKGRENMLYYDTIEDALGGVQEAHFDGLIFVHSGIYTDEWIYIESPITMIGAAPGKVADKVIIENTRDSTFVFMEGSEDAYVGYMTIRFNPDDKSAQHHNAHHCLEITVNCSPIIDHCIIRSTCTVGSAVCVSGQGACPTIKHCNISDCENVGLYITDHAQGIYEDNEISNNALAGIWVKNHGNPIIRRNHIHHGRDVGVFTFDHGMGYFESCNIHRNRIAGFEVKAYANPTVVRCEIHHGQTGGIYVHEKGRGQFIENKIYANNFAGVWITSNSDPTIRGNSIFNGNQGGVYIFGDGRGLIEGNDIYGNALAGIQIRTNSCPIVRHNKIHDGQHGGIYVHEKGQGVIEENEVYSNTLAGVWVTTGSTPVLRRNRIHSGKQVGVYFYDNGHGVLEDNDIYNHMYSGVQIRTGSNPKIRRNKIWGGQNGGILVYNSGLGCIEDNEIFDNAMAGVWIKTDSNPTLRRNKIHDGRDGGICIFNGGRGLLEENDIFRNAQAGVLISTNSHPILRKNRIFDGFAAGIEITNHATATLEGNQIFNNRFGGLFLASGVNVTMKDNKIMNNQDAIEKAVSRGQCLYKISSYTSYPMHDFYRCHTCNTTDRNAICVNCIKKCHQGHDVEFIRHDRFFCDCGAGTLSNPCTLAGEPTHDTDTLYDSAPPIESNTLQHN [FBXO11]”, the melting temperature in data set [4] (cell cycle stage: mitosis) is 52.6 °C. Also, the “solubility change mitosis (log2)” value in data set [2] came out at 0.764. Moreover, the “solubility in G1/S (log2)” value in data set [3] was -1.25.
As for “MSRQTTSVGSSCLDLWREKNDRLVRQAKVAQNSGLTLRRQQLAQDALEGLRGLLHSLQGLPAAVPVLPLELTVTCNFIILRASLAQGFTEDQAQDIQRSLERVLETQEQQGPRLEQGLRELWDSVLRASCLLPELLSALHRLVGLQAALWLSADRLGDLALLLETLNGSQSGASKDLLLLLKTWSPPAEELDAPLTLQDAQGLKDVLLTAFAYRQGLQELITGNPDKALSSLHEAASGLCPRPVLVQVYTALGSCHRKMGNPQRALLYLVAALKEGSAWGPPLLEASRLYQQLGDTTAELESLELLVEALNVPCSSKAPQFLIEVELLLPPPDLASPLHCGTQSQTKHILASRCLQTGRAGDAAEHYLDLLALLLDSSEPRFSPPPSPPGPCMPEVFLEAAVALIQAGRAQDALTLCEELLSRTSSLLPKMSRLWEDARKGTKELPYCPLWVSATHLLQGQAWVQLGAQKVAISEFSRCLELLFRATPEEKEQGAAFNCEQGCKSDAALQQLRAAALISRGLEWVASGQDTKALQDFLLSVQMCPGNRDTYFHLLQTLKRLDRRDEATALWWRLEAQTKGSHEDALWSLPLYLESYLSWIRPSDRDAFLEEFRTSLPKSCDL [FANCG]”, the values for the melting temperature in data set [4] (cell cycle stage: G1/S) and in data set [4] (cell cycle stage: mitosis) were 49.9 °C and 48 °C, respectively. The “solubility change mitosis (log2)” value in data set [2] was -0.0579. In addition, in data set [3], the “solubility in G1/S (log2)” value was 0.138.
Turning to “MSGSLGRAAAALLRWGRGAGGGGLWGPGVRAAGSGAGGGGSAEQLDALVKKDKVVVFLKGTPEQPQCGFSNAVVQILRLHGVRDYAAYNVLDDPELRQGIKDYSNWPTIPQVYLNGEFVGGCDILLQMHQNGDLVEELKKLGIHSALLDEKKDQDSK [GLRX5]”, the figures for the melting temperature in data set [4] (cell cycle stage: G1/S) and in data set [4] (cell cycle stage: mitosis) were 53.9 °C and 53 °C, respectively. In data set [2], the “solubility change mitosis (log2)” value was -0.0285. The “solubility in G1/S (log2)” value in data set [3] is -0.00395.

These data come from the supplement of paper PMC5998384.
